Results on five molecules are retold here after patent publication US12384850 (SYSTIMMUNE, dated 2025).

B1: SI-35E24 (bispecific antibody, not shown: small tags and cut ends)
heavy (part 1 of 7): DIQMTQSPSTLSASVGDRVTITCQSSQSVYSNWFSWYQQKPGKAPKLLIYSASTLASGVPSRFSGSGSGTEFTLTISSLQPDDFATYYCAGGYNTVIDTFAFGGGTKVEIK
heavy (part 2 of 7): EVQLLESGGGLVQPGGSLRLSCAASGIDFSRRYYMCWVRQAPGKGLEWIACIYTGSRDTPHYASSAKGRFTISRDNSKNTLYLQMNSLRAEDTAVYYCAREGSLWGQGTLVTVSS
heavy (part 3 of 7): not shown
heavy (part 4 of 7): EVQLVESGGGLVQPGGSLRLSCAASGFSLNNYWMSWVRQAPGKGLEWIGTISSGAYTWFATWATGRFTISRDNSKNTLYLQMNSLRAEDTAVYYCARYSSTTDWTYFNIWGQGTLVTVSS
heavy (part 5 of 7): DIQMTQSPSTLSASVGDRVTITCQASQSINNYLAWYQQKPGKAPKLLIYRASTLESGVPSRFSGSGSGTEFTLTISSLQPDDFATYYCQSYNGVGRTAFGGGTKVEIK
heavy (part 6 of 7): EVQLVESGGGLVQPGGSLRLSCAASGFTISTNAMSWVRQAPGKGLEWIGVITGRDITYYASWAKGRFTISRDNSKNTLYLQMNSLRAEDTAVYYCARDGGSSAITSNNIWGQGTLVTVSS
heavy (part 7 of 7): DVVMTQSPSTLSASVGDRVTINCQASESISSWLAWYQQKPGKAPKLLIYEASKLASGVPSRFSGSGSGTEFTLTISSLQPDDFATYYCQGYFYFISRTYVNSFGGGTKVEIK
light: AYDMTQSPSSVSASVGDRVTIKCQASEDIYSFLAWYQQKPGKAPKLLIHSASSLASGVPSRFSGSGSGTDFTLTISSLQPEDFATYYCQQGYGKNNVDNAFGGGTKVEIKRTVAAPSVFIFPPSDEQLKSGTASVVCLLNNFYPREAKVQWKVDNALQSGNSQESVTEQDSKDSTYSLSSTLTLSKADYEKHKVYACEVTHQGLSSPVTKSFNRGEC
notes: Tetra-specific; the listing has only VHv3/VLv2; also called SI-3524
B2: SI-35E26 (bispecific antibody, not shown: small tags and cut ends)
heavy (part 1 of 7): DVVMTQSPSSVSASVGDRVTITCQASQNIRTYLSWYQQKPGKAPKLLIYAAANLASGVPSRFSGSGSGTDFTLTISDLEPGDAATYYCQSTYLGTDYVGGAFGGGTKVEIK
heavy (part 2 of 7): RSLVESGGGLVQPGGSLRLSCTASGFTISSYHMQWVRQAPGKGLEYIGTISSGGNVYYASSARGRFTISRPSSKNTVDLQMNSLRAEDTAVYYCARDSGYSDPMWGQGTLVTVSS
heavy (part 3 of 7): not shown
heavy (part 4 of 7): B1 heavy (part 4 of 7)
heavy (part 5 of 7): B1 heavy (part 5 of 7)
heavy (part 6 of 7): B1 heavy (part 6 of 7)
heavy (part 7 of 7): B1 heavy (part 7 of 7)
light: B1 light
notes: Tetra-specific; the listing has only VHv3/VLv2
B3: SI-35E20 (bispecific antibody, not shown: small tags and cut ends)
heavy (part 1 of 7): B2 heavy (part 1 of 7)
heavy (part 2 of 7): B2 heavy (part 2 of 7)
heavy (part 3 of 7): not shown
heavy (part 4 of 7): EVQLLESGGGLVQPGGSLRLSCAASGFTISRYHMTWVRQAPGKGLEWIGHIYVNNDDTDYASSAKGRFTISRDNSKNTLYLQMNSLRAEDTATYFCARLDVGGGGAYIGDIWGQGTLVTVSS
heavy (part 5 of 7): DIQMTQSPSSLSASVGDRVTITCQSSQSVYNNNDLAWYQQKPGKVPKLLIYYASTLASGVPSRFSGSGSGTDFTLTISSLQPEDVATYYCAGGYDTDGLDTFAFGGGTKVEIK
heavy (part 6 of 7): B1 heavy (part 6 of 7)
heavy (part 7 of 7): B1 heavy (part 7 of 7)
light: B1 light
notes: as for B2
B4: SI-35E25 (bispecific antibody, not shown: small tags and cut ends)
heavy (part 1 of 7): ALVMTQSPSTLSASVGDRVTINCQASEDIDTYLAWYQQKPGKAPKLLIFYASDLASGVPSRFSGSGSGTEFTLTISSLQPDDFATYYCQGGYYTSSADTRGAFGGGTKVEIK
heavy (part 2 of 7): QSLVESGGGLVQPGGSLRLSCAASGFSFSSNYWICWVRQAPGKGLEWIACIYVGSSGDTYYASSAKGRFTISRDNSKNTLYLQMNSLRAEDTAVYYCARDSSSYYMFNLWGQGTLVTVSS
heavy (part 3 of 7): not shown
heavy (part 4 of 7): B1 heavy (part 4 of 7)
heavy (part 5 of 7): B1 heavy (part 5 of 7)
heavy (part 6 of 7): B1 heavy (part 6 of 7)
heavy (part 7 of 7): B1 heavy (part 7 of 7)
light: B1 light
notes: as for B2
B5: SI-35E19 (bispecific antibody, not shown: small tags and cut ends)
heavy (part 1 of 7): B4 heavy (part 1 of 7)
heavy (part 2 of 7): B4 heavy (part 2 of 7)
heavy (part 3 of 7): not shown
heavy (part 4 of 7): B3 heavy (part 4 of 7)
heavy (part 5 of 7): B3 heavy (part 5 of 7)
heavy (part 6 of 7): B1 heavy (part 6 of 7)
heavy (part 7 of 7): B1 heavy (part 7 of 7)
light: B1 light
notes: as for B2

The target of the first assay is T1, human 41BB (human, UniProt Q07011 24-255).
T1 construct: whole, on cells; also called 41BB expressing CHO cells; human 41BB transfected CHO cells
T1 sequence (Q07011 24-255): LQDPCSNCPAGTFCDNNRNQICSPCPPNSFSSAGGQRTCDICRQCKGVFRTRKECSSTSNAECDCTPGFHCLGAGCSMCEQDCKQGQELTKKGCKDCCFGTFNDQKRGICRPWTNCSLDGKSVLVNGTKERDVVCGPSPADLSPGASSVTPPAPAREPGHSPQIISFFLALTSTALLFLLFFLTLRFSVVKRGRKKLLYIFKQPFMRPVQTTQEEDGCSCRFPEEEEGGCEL
In words: FACS on human 41BB transfected CHO cells. The procedure:
(§1) Example 2: FACS Analysis of Tetra-Specific GNC Antibody Binding to Human 41BB Transfected CHO Cells The tetra-specific GNC antibodies listed in TABLEs 3 and 4 were tested for binding to Chinese hamster ovary cells (CHO) cells stably expressing a full-length human ROR1. Antibodies were prepared at 2× final concentration and titrated 1:5 across 3 wells of a 96 well plate in 50 ul of PBS/2% FBS and then 5,000 ROR1-CHO cells in 50 ul PBS/2% FBS were added. This mixture was incubated for 30 minutes on ice, washed once with 200 ul PBS/2% FBS, and then the secondary antibody PE Goat anti-Human IgG Fc at 1:1000 dilution of stock was added, and this mixture was incubated for 30 minutes on ice. Cells were washed 2×200 ul PBS/2% FBS, resuspended in 50 ul PBS/2% FBS and analyzed on a BD LSRFORTESSA and the binding profile is shown in FIG. 5. All of the tetra-specific GNC antibodies except for the control SI-27E12 contain a 41BB binding domain, 460C3, 420H5, or 466F6 and bound to 41BB expressing CHO cells with varying intensity.
As to B1, the binding result is “binds”.
On the same count and under the same terms, then B2, with “binds”; and B3, with “binds”.
Same read-out and setting: then B4, with “binds”.
On the same count and under the same terms, for B5 the value was “binds”.

The target in the next assay is T2, human PD-L1 (human, UniProt Q9NZQ7 19-290).
T2 construct: whole, on cells; also called PDL1 expressing CHO cells; human PD-L1 transfected CHO cells
T2 sequence (Q9NZQ7 19-290): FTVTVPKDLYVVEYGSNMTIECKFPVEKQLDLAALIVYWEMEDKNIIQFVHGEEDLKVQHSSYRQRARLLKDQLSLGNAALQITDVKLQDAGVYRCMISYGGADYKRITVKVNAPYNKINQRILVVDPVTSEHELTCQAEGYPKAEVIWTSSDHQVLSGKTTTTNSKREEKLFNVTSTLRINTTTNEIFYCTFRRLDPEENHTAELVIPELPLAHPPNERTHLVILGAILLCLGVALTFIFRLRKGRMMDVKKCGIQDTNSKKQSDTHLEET
In words: FACS on human PD-L1 transfected CHO cells. The procedure:
as §1, with “3:” for “2:”, “PDL1” for “41BB”, “[…]” for “a full-length”, “6.” for “5. All of the tetra-specific GNC antibodies except for the control SI-27E12 contain a 41BB binding domain, 460C3, 420H5, or 466F6 and bound to 41BB expressing CHO cells with varying intensity.”
B1: the binding result is “binds”.
The same measure, in the same setting: then B2, with “binds”; and B3, with “binds”; and B4, with “binds”.
The same measure, in the same setting: for B5 the value was “binds”.

In another assay the target is T3, full-length human ROR1 (human, UniProt Q01973 30-937).
T3 construct: whole, on cells; also called human ROR1 transfected CHO cells; ROR1-CHO cells
T3 sequence (Q01973 30-937): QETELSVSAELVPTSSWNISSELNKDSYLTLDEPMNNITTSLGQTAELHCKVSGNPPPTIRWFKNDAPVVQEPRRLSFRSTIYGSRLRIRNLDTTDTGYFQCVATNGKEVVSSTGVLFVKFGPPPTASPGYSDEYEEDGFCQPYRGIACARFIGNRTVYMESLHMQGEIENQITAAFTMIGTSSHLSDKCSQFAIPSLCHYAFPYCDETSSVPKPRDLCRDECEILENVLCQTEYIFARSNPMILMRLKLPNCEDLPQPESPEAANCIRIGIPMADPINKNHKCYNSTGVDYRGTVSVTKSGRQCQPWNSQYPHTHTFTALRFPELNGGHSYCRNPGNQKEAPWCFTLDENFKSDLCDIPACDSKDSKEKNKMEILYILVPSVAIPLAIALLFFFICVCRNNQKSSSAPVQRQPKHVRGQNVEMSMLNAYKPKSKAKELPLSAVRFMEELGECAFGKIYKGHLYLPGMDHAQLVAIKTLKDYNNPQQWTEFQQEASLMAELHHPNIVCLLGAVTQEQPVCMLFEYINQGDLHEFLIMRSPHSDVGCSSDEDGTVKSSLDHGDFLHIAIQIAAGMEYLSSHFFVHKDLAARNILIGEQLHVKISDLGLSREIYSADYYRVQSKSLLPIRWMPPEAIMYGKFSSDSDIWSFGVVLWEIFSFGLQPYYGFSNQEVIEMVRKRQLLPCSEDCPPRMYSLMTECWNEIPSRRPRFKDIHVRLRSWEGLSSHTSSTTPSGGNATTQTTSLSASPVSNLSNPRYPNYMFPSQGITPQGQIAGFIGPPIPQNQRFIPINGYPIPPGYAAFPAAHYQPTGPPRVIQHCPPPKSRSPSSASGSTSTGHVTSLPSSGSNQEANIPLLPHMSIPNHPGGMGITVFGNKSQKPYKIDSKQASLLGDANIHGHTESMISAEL
In words: FACS on CHO cells stably expressing full-length human ROR1. The procedure: as §1, with “Example 1:” for “Example 2:”, “Tetra-Specific Specific” for “Tetra-Specific GNC”, “Human ROR1” for “Human 41BB”, “FIG. 4.” for “FIG. 5. All of the tetra-specific GNC antibodies except for the control SI-27E12 contain a 41BB binding domain, 460C3, 420H5, or 466F6 and bound to 41BB expressing CHO cells with varying intensity.”
Regarding B1, the binding result is recorded as “no binding”.
Same read-out and setting: then B2, with “no binding”.
Still for that read-out and setting: for B3 the value was “binds”.
On the same count and under the same terms, for B4 the value was “no binding”; for B5, “binds”.
